From patent US20220403029A1 (KYMAB, published 2022)
Read-outs that look alike come from different tables or passages of the source. Blank lines part the entries; values can stand above or below the binder they belong to.

Key:
[1] = target: T1, human ICOS expressed on cells (human, UniProt Q9Y6W8 21-199); experiment: FACS screen on CHO-S cells expressing human ICOS
T1 construct: also called hICOS CHO; Human ICOS CHO
T1 sequence: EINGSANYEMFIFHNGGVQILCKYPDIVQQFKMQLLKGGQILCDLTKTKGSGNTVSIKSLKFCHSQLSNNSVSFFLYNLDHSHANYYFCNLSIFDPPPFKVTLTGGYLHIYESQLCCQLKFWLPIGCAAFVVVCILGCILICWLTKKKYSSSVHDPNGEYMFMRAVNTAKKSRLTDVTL
Experimental: (§1) BCT supernatants and HEK293 expressed antibodies from Example 5 were tested for ability to bind to CHO-S cells expressing human or mouse ICOS.
(§2) CHO-S cells expressing human or mouse ICOS (see Example 2), were diluted in FACS buffer (PBS 1% BSA 0.1% sodium azide) and were distributed to a 96-well, V-bottom plate (Greiner) at a density of 1×10⁵ cells per well. Cells were washed with 150 μL PBS and centrifuged at 300 g for 3 minutes. For supernatant screening, supernatant was aspirated and 150 μL PBS added. This wash step was repeated. 30 μL BCT undiluted supernatant or 50 μL of reference antibody or control antibody diluted to 5 μg/ml in BCT media was added to the washed cells. Cells were incubated at 4° C. for 60 minutes. 150 μL FACS buffer was added and cells washed as described above. To detect antibody binding, 50 μL of goat anti-mouse APC (Jackson ImmunoResearch) diluted to 2 μg/ml in FACS buffer was added to cells. Cells were incubated 4° C. for 60 minutes. Cells were washed twice with 150 μL FACS buffer, centrifuging at 300 g for 3 minutes after each wash step and aspirating supernatant. Cells were fixed by addition of 25 μL 4% paraformaldehyde for 20 minutes at room temperature. Cells were washed once as above and resuspended in FACS buffer for analysis. APC signal intensity (geometric mean) was measured by flow cytometry using a BD FACS Array instrument. Data were plotted as geometric mean values without further calculation.

[2] = target: T2, mouse ICOS expressed on CHO-S cells (mouse, UniProt Q9WVS0 21-141); experiment: FACS screen on CHO-S cells expressing mouse ICOS
T2 construct: full length mouse ICOS (NCBI NP_059508.2) was transfected; also called mICOS CHO; Mouse ICOS CHO
T2 sequence: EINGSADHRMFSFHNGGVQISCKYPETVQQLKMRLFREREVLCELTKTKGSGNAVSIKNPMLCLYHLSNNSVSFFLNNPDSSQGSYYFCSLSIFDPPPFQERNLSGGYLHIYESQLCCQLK
Experimental: as §1, §2

[3] = target: T3, human ICOS-mFc (Chimerigen) (human, UniProt Q9Y6W8 21-141); experiment: HTRF neutralisation of human B7-H2 binding to human ICOS-mFc, hamster IgG in the IgG4.PE series; SD 3.8 (n = 4)
T3 construct: bought; also called human ICOS receptor; not shown: mouse Fc of a bought reagent
T3 sequence (looked up): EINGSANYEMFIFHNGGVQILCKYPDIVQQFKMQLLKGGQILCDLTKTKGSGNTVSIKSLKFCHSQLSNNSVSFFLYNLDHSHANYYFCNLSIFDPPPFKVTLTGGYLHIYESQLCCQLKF

[4] = target: T4, mouse ICOS-mFc (Chimerigen) (mouse, UniProt Q9WVS0 21-144); experiment: HTRF neutralisation of mouse B7-H2 binding to mouse ICOS-mFc, hamster IgG in the IgG1 series; SD 0 (n = 3)
T4 construct: bought; also called mouse ICOS receptor; not shown: mouse Fc of a bought reagent
T4 sequence (looked up): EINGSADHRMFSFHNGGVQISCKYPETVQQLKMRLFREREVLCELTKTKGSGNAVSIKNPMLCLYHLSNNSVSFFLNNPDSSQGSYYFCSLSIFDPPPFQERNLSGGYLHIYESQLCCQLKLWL

[5] = target: T4, mouse ICOS-mFc (Chimerigen); experiment: HTRF neutralisation of mouse B7-H2 binding to mouse ICOS-mFc, hamster IgG in the IgG4.PE series; SD 0.1 (n = 3)
[6] = target: T4, mouse ICOS-mFc (Chimerigen); experiment: HTRF neutralisation of mouse B7-H2 binding to mouse ICOS-mFc, IgG1 series; same result as the 6th table, row 13, column 3 with more digits
[7] = target: T3, human ICOS-mFc (Chimerigen); experiment: HTRF neutralisation of human B7-H2 binding to human ICOS-mFc, hamster IgG in the IgG1 series; SD 0.3 (n = 4)
[8] = target: T1, human ICOS expressed on cells; experiment: cell-based or functional assay
[9] = target: T1, human ICOS expressed on cells; experiment: cell-based or functional assay; remark: listed apart in the source
[10] = target: T1, human ICOS expressed on cells; experiment: flow cytometry on CHO-S cells expressing human ICOS
[11] = target: T2, mouse ICOS expressed on CHO-S cells; experiment: flow cytometry on CHO-S cells expressing mouse ICOS
[12] = target: T1, human ICOS expressed on cells; experiment: cell-based or functional assay; remark: listed apart in the source

B1: STIM002-B as screened from BCT (mouse IgG1 constant region) (antibody, V domains shown)
VH: QVQLVQSGGEVKKPGASVKVSCKASGYTFTSYGFSWVRQAPGQGLEWMGWISAYNGNTNYAQKLQGRVTMTTDTSTSTAYMELRSLRSDDTAVYYCARSTYFYGSGTLYGMDVWGQGTTVTVSS
VL: DIVMTQSPLSLPVTPGEPASISCRSSQSLLHSDGYNCLDWYLQKPGQSPQLLIYLGSTRASGFPDRFSGSGSGTDFTLKISRVEAEDVGVYYCMQALQTPCSFGQGTKLEIK
notes: as m28
fold above average geomean of hybrid control [1]: > 4 fold
fold above average geomean of hybrid control [2]: > 4 fold

B2: STIM003 as screened from BCT (mouse IgG1 constant region) (antibody, V domains shown)
VH: EVQLVESGGGVVRPGGSLRLSCVASGVTFDDYGMSWVRQAPGKGLEWVSGINWNGGDTDYSDSVKGRFTISRDNAKNSLYLQMNSLRAEDTALYYCARDFYGSGSYYHVPFDYWGQGILVTVSS
VL: EIVLTQSPGTLSLSPGERATLSCRASQSVSRSYLAWYQQKRGQAPRLLIYGASSRATGIPDRFSGDGSGTDFTLSISRLEPEDFAVYYCHQYDMSPFTFGPGTKVDIK
notes: as m28
fold above average geomean of negative control (HTK888) [1]: > 4 fold
fold above average geomean of negative control (HTK888) [2]: > 4 fold

B4: Anti-ICOS antibody C398.4A (hamster IgG) (antibody, V domains shown)
VH: EVQLVESGGGLVKPAGSLTLSCVASGFTFSDYFMHWVRQAPGKGLEWVAVIDTKSFNYATYYSDLVKGRFTVSRDDSQGMVYLQMNNLRKEDTATYYCTATIAVPYYFDYWGQGTMVTVSS
VL: DIQMTQSPSSLPASLGDRVTINCQASQDISNYLSWYQQKPGKAPKLLIYYTNLLADGVPSRFSGSGSGRDYSFTISSLESEDIGSYYCQQYYNYRTFGPGTKLEIK
IC50 [3]: 2.8 nM
IC50 [4]: 0.1 nM
IC50 [5]: 0.2 nM
IC50 [6]: 0.14 nM
IC50 [7]: 1.2 nM

B6: CL-74570 (IgG1 format) (antibody, V domains shown)
VH: EVQLVESGGGVIRPGGSLRLSCAASGFTFDDYGMSWVRQAPGKGLEWVSGINWIGDNTDYADSVKGRFTISRDNAKNSLYLQMNSLRAEDTALYYCARDYFGSGSYYNVPF
VL: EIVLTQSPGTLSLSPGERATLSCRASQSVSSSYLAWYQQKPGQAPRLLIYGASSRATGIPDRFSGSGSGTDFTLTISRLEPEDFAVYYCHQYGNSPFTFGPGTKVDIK
notes: synthesised and expressed in human IgG1 format in HEK cells; tested as supernatant
fold above average geomean of negative control [10]: > 10 fold
fold above average geomean of negative control [11]: > 10 fold

B8: STIM001 human IgG1 (antibody)
heavy: not shown
light: DIVMTQSPLSLPVTPGEPASISCRSSQSLLHSNEYNYLDWYLQKPGQSPQLLIFLGSNRASGVPDRFSGSGSGTDFTLKITRVEAEDVGIYYCMQSLQTPLTFGGGTKVEIKRTVAAPSVFIFPPSDEQLKSGTASVVCLLNNFYPREAKVQWKVDNALQSGNSQESVTEQDSKDSTYSLSSTLTLSKADYEKHKVYACEVTHQGLSSPVTKSFNRGEC
EC50, primary NK cell ADCC on MJ cells, 2 h, Donor 1 [12]: 0.121 nM
EC50, primary NK cell ADCC on MJ cells, 2 h, Donor 2 [12]: 0.529 nM
EC50, primary NK cell ADCC on MJ cells, 2 h, Donor 1 [8]: 0.121 nM
EC50, primary NK cell ADCC on MJ cells, 2 h, Donor 2 [8]: 0.529 nM
EC50, primary NK cell ADCC on MJ cells, 2 h, Donor 3 [8]: 2.92 nM
EC50, primary NK cell ADCC on ICOS-transfected CCRF-CEM cells, 4 h, Donor 4 [9]: 0.00392 nM
EC50, primary NK cell ADCC on ICOS-transfected CCRF-CEM cells, 4 h, Donor 5 [9]: 0.00395 nM
EC50, primary NK cell ADCC on ICOS-transfected CCRF-CEM cells, 4 h, Donor 6 [9]: 0.00375 nM

B10: CL-61091 (IgG1 format) (antibody, V domains shown)
VH: QVQLMQSGTEVKKPGASVKVSCKTSGYTFTTYGITWVRQAPGQGLEWMGWISAYSGDTDYAQKFQGRVTVTTDTSTNTAYMELRSLKSDDTAVYYCARSSGWPHHYGMDVWGQGTTVTVSS
VL: DIVMTQSPLSLPVTPGEPASISCRSSQSLLHSNGFNYFDWYLQKPGQSPQLLIFLVSNRASGVPDRFSGSGSGTDFTLKISRVEAEDVGIYYCMQALQTPLTFGGGTKVEIK
notes: as for B6
fold above average geomean of negative control [10]: > 10 fold
fold above average geomean of negative control [11]: > 10 fold

B11: STIM001 as screened from BCT (human V regions on mouse IgG1 constant region) (antibody, V domains shown)
VH: QVQVVQSGAEVKKPGASVKVSCKASGYTFSTFGITWVRQAPGQGLEWMGWISAYNGDTNYAQNLQGRVIMTTDTSTSTAYMELRSLRSDDTAVYYCARSSGHYYYYGMDVWGQGTTVTVSS
VL: DIVMTQSPLSLPVTPGEPASISCRSSQSLLHSNEYNYLDWYLQKPGQSPQLLIFLGSNRASGVPDRFSGSGSGTDFTLKITRVEAEDVGIYYCMQSLQTPLTFGGGTKVEIK
fold above average geomean of hybrid control [1]: > 4 fold
fold above average geomean of hybrid control [2]: > 4 fold

More lines, now with the values ahead:

fold above average geomean of negative control (HTK888) [1]: > 4 fold
fold above average geomean of negative control (HTK888) [2]: > 4 fold
B3: STIM004 as screened from BCT (mouse IgG1 constant region) (antibody, V domains shown)
VH: EVQLVESGGGVVRPGGSLRLSCAASGLTFDDYGMSWVRQVPGKGLEWVSGINWNGDNTDYADSVKGRFTISRDNAKNSLYLQMNSLRAEDTALYYCARDYYGSGSYYNVPFDYWGQGTLVTVSS
VL: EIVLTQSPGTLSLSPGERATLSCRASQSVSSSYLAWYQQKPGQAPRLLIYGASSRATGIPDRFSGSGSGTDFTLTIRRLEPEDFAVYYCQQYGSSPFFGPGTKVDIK
notes: as m28

EC50, primary NK cell ADCC on MJ cells, 2 h, Donor 1 [8]: 0.00233 nM
EC50, primary NK cell ADCC on MJ cells, 2 h, Donor 2 [8]: 0.0358 nM
EC50, primary NK cell ADCC on MJ cells, 2 h, Donor 3 [8]: 0.101 nM
EC50, primary NK cell ADCC on ICOS-transfected CCRF-CEM cells, 4 h, Donor 4 [9]: ~0.003 nM
EC50, primary NK cell ADCC on ICOS-transfected CCRF-CEM cells, 4 h, Donor 5 [9]: 0.000895 nM
EC50, primary NK cell ADCC on ICOS-transfected CCRF-CEM cells, 4 h, Donor 6 [9]: 0.00103 nM
B5: STIM003 human IgG1 (antibody)
heavy: not shown
light: EIVLTQSPGTLSLSPGERATLSCRASQSVSRSYLAWYQQKRGQAPRLLIYGASSRATGIPDRFSGDGSGTDFTLSISRLEPEDFAVYYCHQYDMSPFTFGPGTKVDIKRTVAAPSVFIFPPSDEQLKSGTASVVCLLNNFYPREAKVQWKVDNALQSGNSQESVTEQDSKDSTYSLSSTLTLSKADYEKHKVYACEVTHQGLSSPVTKSFNRGEC

fold above average geomean of negative control (HTK888) [1]: > 4 fold
fold above average geomean of negative control (HTK888) [2]: > 4 fold
B7: STIM005 as screened from BCT (mouse IgG1 constant region) (antibody, V domains shown)
VH: QVQLVQSGAEVKKPGASVKVSCKASGYTFNSYGIIWVRQAPGQGLEWMGWISVHNGNTNCAQKLQGRVTMTTDTSTSTAYMELRSLRTDDTAVYYCARAGYDILTDFSDAFDIWGHGTMVTVSS
VL: DIQMTQSPSSLSASVGDRVTITCRASQNINNFLNWYQQKEGKGPKLLIYAASSLQRGIPSTFSGSGSGTDFTLTISSLQPEDFATYICQQSYGIPWVGQGTKVEIK
notes: as m28

fold above average geomean of hybrid control [1]: > 4 fold
fold above average geomean of hybrid control [2]: > 4 fold
B9: STIM009 as screened from BCT (mouse IgG1 constant region) (antibody, V domains shown)
VH: QVQLVESGGGLVKPGGSLRLSCAASGFTFSDYYMSWIRQAPGKGLEWVSYISSSGSTIYYADSVKGRFTISRDNAKNSLYLQINSLRAEDTAVYYCARDFYDILTDSPYFYYGVDVWGQGTTVTVSS
VL: not shown
notes: as m28
